In patent US6890720B1, “Antigens derived from filaggrin and their use for diagnosing rheumatoid polyarthritis” (Biomerieux, priority 1996, dated 2005):

Legend:
[1] = tested on: AFAs of the sera from patients suffering from RA; assay: Immunoblot of citrullinated and noncitrullinated fil-gst with individual sera and purified AFAs; format: binding, human; conditions: citrullinated fil-gst; purified AFAs 4 μg/ml
Procedure: In a first series of experiments (FIG. 4a), the reactivity of noncitrullinated fil-gst (fil-gst alone, 30 minutes at 50° C.) and fil-gst citrullinated with PAD 30 minutes at 50° C. is compared with human sera composed of: • sera from normal persons: T(2) and T(3) • sera from patients suffering from RA having high AFA titers which are detected by immunotransfer on acido-neutral variants of human filaggrin, and by indirect immunofluorescence on cryosections of rat esophagus: RA(6) and RA(8); • anti-filaggrin antibodies purified from the serum from a patient suffering from RA by affinity chromatography, on a column grafted with acido-neutral isoforms of human filaggrin: AFA.
A positive control is also carried out with the monoclonal antibody AHF2.
In a second series of experiments (FIG. 4b), the reactivity of citrullinated fil-gst is confirmed with a largest series of sera: • 4 control sera: T(4) • 4 sera from patients suffering from RA not having AFAs detected by immunotransfer or by indirect immunofluorescence: RA(4) • 9 sera from patients suffering from RA with high AFA titers (three of them (*) were also tested in the first series of experiments): RA(9) • anti-filaggrin antibodies purified by affinity chromatography, on a column grafted with the acido-neutral isoforms of filaggrin, from a pool of sera from 40 patients suffering from RA: AFA • the monoclonal antibodies AHF (1-7). […]

[2] = tested on: serum from a patient suffering from RA; assay: Dot-blot of peptides and fil-gst before and after PAD, serum from an RA patient; format: binding, human; conditions: after citrullination (PAD 30 minutes at 50° C.); 0.5 μg antigen per deposit; serum 1/2000
Procedure: These 2 peptides, as well as fil-gst, were citrullinated by the action of PAD, for 30 minutes at 50° C., in the same reaction medium as that indicated in Example 2. The specific conditions for each peptide, and for the fil-gst are the following: • peptide S-47-S (SEQ ID NO:3): 4 mU/μmol arginine • peptide S-35-R (SEQ ID NO:4): 2.7 mU/μmol arginine • fil-gst as indicated in Example 2.
The reactivity of each peptide and that of fil-gst, before and after action of the enzyme, towards the monoclonal antibody AHF4, and the serum from a patient suffering from RA, is compared by dot-blot.
The operating conditions are the following: • 0.5 μg by deposition of each antigen (peptides, fil-gst, acido-neutral variants of filaggrin (AVF)) • nitrocellulose treatment 45 minutes at 80° C., before immunodetection • RA serum used at the dilution of 1/2000; monoclonal antibody AHF4 used at a concentration of 0.2 μg/ml

B1: citrullinated fil-gst: fil-gst deiminated in vitro by rabbit muscle peptidylarginine deiminase (protein)
chain: QSESAHGRTGTSTGGRQGSHHKQARDSSRHSTSQEGQDTIHGHPGSSSGGRQGSHYEQLVDRSGHSGSHHSHTTSQGRSDASHGHSGSRSASRQTRNDEQSGDGSRHSGSRHHEASSRADSSGHSQVGQGQSEGPRTSRNWGSSFSQDSDSQGHSEDSERWSGSASRNHHGSAQEQLRDGSRHPRSHQEDRAGHGHSADSSRQSGTRHTQTSSGGQAASSHEQARSSAGERHGSHHQQSADSSRHSGIGHGQASSAVRDSGHRGYSGSQASDNEGHSEDSDTQSVSAHGQAGSHQQSHQESARGRSGETSGHSGSFLYQVSTHE
modifications: non-natural residues; left off: a dimerising Fc or GST
notes: fil-gst deiminated in vitro by rabbit muscle peptidylarginine deiminase
[1]
  reactivity of antifilaggrin autoantibodies purified by affinity chromatography from RA sera: recognition of the fragments corresponding to lanes 1 to 5
[2]
  recognition by the serum from the patient suffering from RA: recognizes
